Drawing on patent publication JP2000166573A, this text covers 結合阻害 (percent inhibition) for two molecules.

This assay deals with 抗Fasモノクローナル抗体HFE7A (mouse anti-human Fas monoclonal antibody HFE7A, from hybridoma FERM BP-5828). The assay is described as follows: peptide (200 μg) preincubated with HFE7A (0.25 μg), then binding to WR19L12a cells by flow cytometry. A general note: In flow cytometry, cells or beads pass a laser one at a time.

B1: P110 (synthetic 10-residue peptide of the human Fas extracellular region) (peptide)
peptide: KCRCKPNFFC
Turning to B1, the 結合阻害 (percent inhibition) was found to be 60%.

B2: P100 (synthetic 10-residue peptide of the human Fas extracellular region) (peptide)
peptide: EINCTRTQNT
The molecule B2 gave a 結合阻害 (percent inhibition) of 50%.
